Experimental data from patent US20250320478.

Columns and labels:
Test in all cases: cell_activity
[1] = test system: ZFP3:G:D3A (synthetic construct); settings: triple combination with ZFP8:G:K and ZFP6:G:hD3L; not tested alone
[2] = test system: ZFP6:G:hD3L (synthetic construct); settings: triple combination with ZFP8:G:K and ZFP3:G:D3A; not tested alone
[3] = test system: ZFP8 (Pcsk9 ZFP, KRAB/DNMT3 effector fusions) (synthetic construct); settings: upper end of 1.5-17 range for bi-partite ZFP8 ETRs in Hepa 1-6 Pcsk9tdTomato; tri-partite 2-8 fold; binding inferred from silencing

ZFP3:G:D3A (synthetic construct), sequence (chain, as listed by the source): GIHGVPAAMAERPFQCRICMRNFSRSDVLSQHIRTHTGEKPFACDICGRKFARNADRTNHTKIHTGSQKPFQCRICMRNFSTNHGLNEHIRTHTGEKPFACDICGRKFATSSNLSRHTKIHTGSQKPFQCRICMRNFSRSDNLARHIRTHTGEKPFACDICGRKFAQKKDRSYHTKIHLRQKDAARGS
ZFP6:G:hD3L (synthetic construct), sequence (chain, as listed by the source): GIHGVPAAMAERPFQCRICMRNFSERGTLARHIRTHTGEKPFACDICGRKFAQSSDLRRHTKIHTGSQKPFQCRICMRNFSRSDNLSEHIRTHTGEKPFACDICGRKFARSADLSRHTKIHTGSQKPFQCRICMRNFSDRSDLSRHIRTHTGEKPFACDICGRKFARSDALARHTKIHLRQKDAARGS

Pcsk9 promoter CpG island, ZFP3 target site
activity (fold silencing vs ZFPoff) [1]: 15

Pcsk9 promoter CpG island, ZFP6 target site
activity (fold silencing vs ZFPoff) [2]: 15

Pcsk9 promoter CpG island, ZFP8 target site
activity (fold silencing vs ZFPoff) [3]: 17
